Experimental data from patent publication CN117088975A.

Target: ALB蛋白(天然提取)
Test: AMC sensor, antibody immobilised at 10 ug/ml, ALB in gradient dilution in PBST

Kd: 0.0324 µM
koff: 0.000483 s⁻¹
kon: 14900 M⁻¹ s⁻¹
Substance: 对照 (antibody)
